± gives the uncertainty stated by the source.
Test: self-splicing fitness, log relative to wild type (ln ratio); higher = more splicing; Tetrahymena group I intron in knt gene, E. coli kanamycin selection, DiMSum; sequences stand for … in CUCUCU…GGAGGGAAAAGUUAUCAGGCAUGCACCUGGUAGCUAGUCUUUAAACCAAUAGAUUGCAUCGGUUUAAAAGGCAAGACCGUCAAAUUGCGGGAAAGGGGUCAACAGCCGUUCAGUACCAAGUCUCAGGGGAAACUUUGAGAUGGCCUUGCAAAGGGUAUGGUAAUAAGCUGACGGACAUGGUCCUAACCACGCAGCCAAGUCCUAAGUCAACAGAUCUUCUGUUGAUAUGGAUGCAGUUCACAGACUAAAUGUCGGUCGGGGAAGAUGUAUUCUUCUCAUAAGAUAUAGUCGGACCUCUCCUUAAUGGGAGCUAGCGGAUGAAGUGAUGCAACACUGGAGCCGCUGGGAACUAAUUUGUAUGCGAAAGUAUAUUGAUUAGUUUUGGAGUACUCGUGGUCG
In short: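 Fitness was computed with DiMSum as the error-weighted combination of replicate fold changes, kanamycin versus none, each normalised to wild type. The library randomised all eight intron nucleotides of the P1ex region, with the intron placed in the knt kanamycin-resistance gene on pET-22b(+) in E. coli BL21(DE3). Six replicate transformations were grown overnight at 37°C or 30°C on LB agar with or without 25 μg/mL kanamycin, plus 100 μg/mL carbenicillin, 50 μM IPTG and 0.2% rhamnose. Pooled colonies were amplicon-sequenced on an Illumina HiSeq 2500.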

Sequence | self-splicing fitness (ln) (30 °C) | self-splicing fitness (ln) (37 °C)
AACAAGCAAUAUUACGUCGG | -2.99 ± 0.14 | -1.99 ± 0.15
CGAAAGCAAUAUUACGUAGU | -3.2 ± 0.098 | -2.77 ± 0.13
AAAAAGCAAUAUUACGUUCC | -1.3 ± 0.098 | -0.521 ± 0.14
GAAAAGCAAUAUUACGAUCA | -0.39 ± 0.067 | -0.234 ± 0.072
UUGUAGCAAUAUUACGGUGG | -1.75 ± 0.12 | -1.28 ± 0.17
UGUCAGCAAUAUUACGUCGA | -0.404 ± 0.073 | -0.0273 ± 0.085
CGUAAGCAAUAUUACGUGAG | -2.17 ± 0.11 | -1.09 ± 0.092
AUACAGCAAUAUUACGGCGG | -1.19 ± 0.095 | -0.617 ± 0.12
UGCCAGCAAUAUUACGGCUU | -0.887 ± 0.098 | -0.247 ± 0.11
AGUUAGCAAUAUUACGCUGA | -3.13 ± 0.3 | -2.05 ± 0.27
CGCCAGCAAUAUUACGCAGG | -2.06 ± 0.2 | -2.56 ± 0.26
AUGUAGCAAUAUUACGAGGU | -2.28 ± 0.19 | -1.84 ± 0.23
CACCAGCAAUAUUACGCAUG | -1.29 ± 0.062 | -0.787 ± 0.07
UCCAAGCAAUAUUACGUCAA | -2.68 ± 0.19 | -0.871 ± 0.1
AAAUAGCAAUAUUACGACUU | 0.559 ± 0.099 | 0.387 ± 0.13
UGCCAGCAAUAUUACGAAUU | -3.68 ± 0.26 | -3.3 ± 0.24
CCGGAGCAAUAUUACGUUGG | -3.57 ± 0.24 | -2.47 ± 0.26
CCUUAGCAAUAUUACGAACA | – | -0.92 ± 0.29
UCCCAGCAAUAUUACGAAAU | -3.28 ± 0.16 | -1.76 ± 0.2
ACUCAGCAAUAUUACGCACA | -0.835 ± 0.083 | -0.539 ± 0.1
CCAAAGCAAUAUUACGGUCU | -3.75 ± 0.16 | -3.15 ± 0.19
GGCAAGCAAUAUUACGGGUU | -0.709 ± 0.077 | -0.607 ± 0.08
GAUGAGCAAUAUUACGUCCA | -2.12 ± 0.36 | -2.26 ± 0.32
UAACAGCAAUAUUACGAAUC | -2.67 ± 0.18 | -2.66 ± 0.29
UGGUAGCAAUAUUACGUCCA | -0.714 ± 0.24 | -0.608 ± 0.3
AGUAAGCAAUAUUACGAAGC | -3.12 ± 0.27 | -3.5 ± 0.37

Sequence | self-splicing fitness (ln) (30 °C) | self-splicing fitness (ln) (37 °C)
CCCCAGCAAUAUUACGCCAU | -2.14 ± 0.12 | -2.32 ± 0.17
UAUUAGCAAUAUUACGGCGA | -0.206 ± 0.15 | -0.325 ± 0.16
UAUAAGCAAUAUUACGAUUG | -1.48 ± 0.11 | -0.744 ± 0.13
GAAAAGCAAUAUUACGUUGU | -4.51 ± 0.2 | -2.22 ± 0.12
GGUUAGCAAUAUUACGGUGA | -1.49 ± 0.13 | -0.0195 ± 0.13
UCUUAGCAAUAUUACGUAGC | -3.98 ± 0.46 | -1.98 ± 0.21
GCGAAGCAAUAUUACGACUG | -1.72 ± 0.14 | -0.66 ± 0.14
CAAGAGCAAUAUUACGACGG | -0.504 ± 0.087 | 0.00208 ± 0.14
GAUAAGCAAUAUUACGCUUA | -3.59 ± 0.31 | -2.91 ± 0.23
AUUAAGCAAUAUUACGUCCU | -0.24 ± 0.097 | 0.264 ± 0.12
GGAAAGCAAUAUUACGUGAG | -1.22 ± 0.047 | -0.225 ± 0.069
ACCUAGCAAUAUUACGACUA | -2.72 ± 0.21 | -1.78 ± 0.23
UCCUAGCAAUAUUACGUGUA | -2.28 ± 0.18 | -1.09 ± 0.12
GAUAAGCAAUAUUACGUCGG | -3.81 ± 0.35 | -3.35 ± 0.28
UGUGAGCAAUAUUACGUGCA | -1.1 ± 0.14 | -0.55 ± 0.16
AAUAAGCAAUAUUACGCAUG | -1.16 ± 0.13 | -0.645 ± 0.12
CAUUAGCAAUAUUACGACAG | 0.268 ± 0.06 | 0.168 ± 0.071
CGUAAGCAAUAUUACGCUAU | -3.13 ± 0.27 | -4.43 ± 0.42
CUCCAGCAAUAUUACGGGCG | -1.74 ± 0.092 | -1.2 ± 0.13
GCAUAGCAAUAUUACGUCAA | -2.89 ± 0.25 | -1.82 ± 0.18
GACUAGCAAUAUUACGGGAC | -2.29 ± 0.17 | -1.44 ± 0.19
GUAAAGCAAUAUUACGGCGA | -0.00421 ± 0.11 | -0.231 ± 0.17
AGUAAGCAAUAUUACGUCUA | -0.96 ± 0.16 | -0.0188 ± 0.15
GGGAAGCAAUAUUACGCCCA | -0.527 ± 0.15 | -0.717 ± 0.21
CUAUAGCAAUAUUACGGUUA | -2.91 ± 0.2 | -2.84 ± 0.19
CGUUAGCAAUAUUACGUGUA | -3.37 ± 0.25 | -3.03 ± 0.34

Sequence | self-splicing fitness (ln) (30 °C) | self-splicing fitness (ln) (37 °C)
GGGAAGCAAUAUUACGAAAU | -3.24 ± 0.19 | -2.26 ± 0.22
ACCAAGCAAUAUUACGAAAG | -3.27 ± 0.18 | -1.78 ± 0.14
GUCAAGCAAUAUUACGUCGG | – | -1.88 ± 0.18
GACCAGCAAUAUUACGUGCA | -0.378 ± 0.07 | -0.122 ± 0.086
GUACAGCAAUAUUACGAGAC | -2.09 ± 0.24 | -2.5 ± 0.28
ACAUAGCAAUAUUACGUUAU | -4.28 ± 0.29 | -3.07 ± 0.2
UUCUAGCAAUAUUACGCGUG | -2.22 ± 0.12 | -0.708 ± 0.1
GUCAAGCAAUAUUACGGUGC | -2.35 ± 0.12 | -1.72 ± 0.18
AAGUAGCAAUAUUACGACAG | -2.86 ± 0.18 | -1.66 ± 0.21
CCGAAGCAAUAUUACGGGUU | -4.22 ± 0.21 | -2.64 ± 0.16
AAACAGCAAUAUUACGGAUA | -2.99 ± 0.15 | -1.92 ± 0.14
CGGAAGCAAUAUUACGGUUG | -0.585 ± 0.059 | -0.061 ± 0.085
UAUUAGCAAUAUUACGGGUU | -2.08 ± 0.13 | -1.77 ± 0.2
GUGAAGCAAUAUUACGGAUA | -1.37 ± 0.096 | -1.13 ± 0.1
CAGAAGCAAUAUUACGACGU | -1.53 ± 0.12 | -0.618 ± 0.12
CCUAAGCAAUAUUACGCGUU | -3.27 ± 0.15 | -2.69 ± 0.16
UUUGAGCAAUAUUACGUAAG | -1.29 ± 0.056 | -0.487 ± 0.078
CCGGAGCAAUAUUACGUCGU | -3.43 ± 0.22 | -1.51 ± 0.18
UGUUAGCAAUAUUACGGCCU | -0.213 ± 0.27 | 0.286 ± 0.25
ACCCAGCAAUAUUACGCGAA | -1.26 ± 0.068 | -0.703 ± 0.078
ACCGAGCAAUAUUACGUAAG | -2.67 ± 0.13 | -2.13 ± 0.16
ACGAAGCAAUAUUACGGAGU | -3.82 ± 0.24 | -3.07 ± 0.29
CCGAAGCAAUAUUACGUACG | -1.37 ± 0.13 | -0.92 ± 0.13
GUGAAGCAAUAUUACGCACG | -0.996 ± 0.12 | -0.777 ± 0.13
UGGGAGCAAUAUUACGAUUU | -3.39 ± 0.3 | –

— the supplement of paper PMC7877785
